Results from patent publication US20240261333A1, “NOVEL TARGETS FOR ENHANCING ANTI-TUMOR IMMUNITY” (THE BROAD INSTITUTE, INC., priority 2021, published 2024).

Experiments:
CALML5 (human) = CALML5 (human) (UniProt Q9NZT1); experiment: control IP with IgG, lysate of cells with N-FLAG B3GNT2, mass spectrometry
CCT3 (human) = CCT3 (human) (UniProt P49368); experiment: as above
CHCHD3 (human) = CHCHD3 (human) (UniProt Q9NX63); experiment: as above
DHX9 (human) = DHX9 (human) (UniProt Q08211); experiment: as above
EIF3A (human) = EIF3A (human) (UniProt Q14152); experiment: as above
EMILIN1 (human) = EMILIN1 (human) (UniProt Q9Y6C2); experiment: as above
FLG (human) = FLG (human) (UniProt P20930); experiment: as above
GBF1 (human) = GBF1 (human) (UniProt Q92538); experiment: as above
GEMIN4 (human) = GEMIN4 (human) (UniProt P57678); experiment: as above
GSN (human) = GSN (human) (UniProt P06396); experiment: as above
HNRNPM (human) = HNRNPM (human) (UniProt P52272); experiment: as above
IL13RA2 (human) = IL13RA2 (human) (UniProt Q14627); experiment: as above
KCTD5 (human) = KCTD5 (human) (UniProt Q9NXV2); experiment: as above
LCN1 (human) = LCN1 (human) (UniProt P31025); experiment: as above
MAP4 (human) = MAP4 (human) (UniProt P27816); experiment: as above
PPFIBP1 (human) = PPFIBP1 (human) (UniProt Q86W92); experiment: as above
RACK1 (human) = RACK1 (human) (UniProt P63244); experiment: as above
RPL23 (human) = RPL23 (human) (UniProt P62829); experiment: as above
RPL28 (human) = RPL28 (human) (UniProt P46779); experiment: as above
RPL38 (human) = RPL38 (human) (UniProt P63173); experiment: as above
RPL8 (human) = RPL8 (human) (UniProt P62917); experiment: as above
RPS14 (human) = RPS14 (human) (UniProt P62263); experiment: as above
RPS26 (human) = RPS26 (human) (UniProt P62854); experiment: as above
SYNCRIP (human) = SYNCRIP (human) (UniProt O60506); experiment: as above
SYNM (human) = SYNM (human) (UniProt O15061); experiment: as above
SYNPO (human) = SYNPO (human) (UniProt Q8N3V7); experiment: as above
TBL2 (human) = TBL2 (human) (UniProt Q9Y4P3); experiment: as above
TELO2 (human) = TELO2 (human) (UniProt Q9Y4R8); experiment: as above
TPM3 (human) = TPM3 (human) (UniProt P06753); experiment: as above
AIFM1 (human) = AIFM1 (human) (UniProt O95831); experiment: anti-FLAG co-IP from lysate of N-FLAG B3GNT2 cells, mass spectrometry
EEF2 (human) = EEF2 (human) (UniProt P13639); experiment: as above
HSP90AB1 (human) = HSP90AB1 (human) (UniProt P08238); experiment: as above
LDHA (human) = LDHA (human) (UniProt P00338); experiment: as above
PSMB4 (human) = PSMB4 (human) (UniProt P28070); experiment: as above
PSMB6 (human) = PSMB6 (human) (UniProt P28072); experiment: as above
PXN (human) = PXN (human) (UniProt P49023); experiment: as above
RPL15 (human) = RPL15 (human) (UniProt P61313); experiment: as above
RRBP1 (human) = RRBP1 (human) (UniProt Q9P2E9); experiment: as above
Sequence of RRBP1 (human) (Q9P2E9 whole entry): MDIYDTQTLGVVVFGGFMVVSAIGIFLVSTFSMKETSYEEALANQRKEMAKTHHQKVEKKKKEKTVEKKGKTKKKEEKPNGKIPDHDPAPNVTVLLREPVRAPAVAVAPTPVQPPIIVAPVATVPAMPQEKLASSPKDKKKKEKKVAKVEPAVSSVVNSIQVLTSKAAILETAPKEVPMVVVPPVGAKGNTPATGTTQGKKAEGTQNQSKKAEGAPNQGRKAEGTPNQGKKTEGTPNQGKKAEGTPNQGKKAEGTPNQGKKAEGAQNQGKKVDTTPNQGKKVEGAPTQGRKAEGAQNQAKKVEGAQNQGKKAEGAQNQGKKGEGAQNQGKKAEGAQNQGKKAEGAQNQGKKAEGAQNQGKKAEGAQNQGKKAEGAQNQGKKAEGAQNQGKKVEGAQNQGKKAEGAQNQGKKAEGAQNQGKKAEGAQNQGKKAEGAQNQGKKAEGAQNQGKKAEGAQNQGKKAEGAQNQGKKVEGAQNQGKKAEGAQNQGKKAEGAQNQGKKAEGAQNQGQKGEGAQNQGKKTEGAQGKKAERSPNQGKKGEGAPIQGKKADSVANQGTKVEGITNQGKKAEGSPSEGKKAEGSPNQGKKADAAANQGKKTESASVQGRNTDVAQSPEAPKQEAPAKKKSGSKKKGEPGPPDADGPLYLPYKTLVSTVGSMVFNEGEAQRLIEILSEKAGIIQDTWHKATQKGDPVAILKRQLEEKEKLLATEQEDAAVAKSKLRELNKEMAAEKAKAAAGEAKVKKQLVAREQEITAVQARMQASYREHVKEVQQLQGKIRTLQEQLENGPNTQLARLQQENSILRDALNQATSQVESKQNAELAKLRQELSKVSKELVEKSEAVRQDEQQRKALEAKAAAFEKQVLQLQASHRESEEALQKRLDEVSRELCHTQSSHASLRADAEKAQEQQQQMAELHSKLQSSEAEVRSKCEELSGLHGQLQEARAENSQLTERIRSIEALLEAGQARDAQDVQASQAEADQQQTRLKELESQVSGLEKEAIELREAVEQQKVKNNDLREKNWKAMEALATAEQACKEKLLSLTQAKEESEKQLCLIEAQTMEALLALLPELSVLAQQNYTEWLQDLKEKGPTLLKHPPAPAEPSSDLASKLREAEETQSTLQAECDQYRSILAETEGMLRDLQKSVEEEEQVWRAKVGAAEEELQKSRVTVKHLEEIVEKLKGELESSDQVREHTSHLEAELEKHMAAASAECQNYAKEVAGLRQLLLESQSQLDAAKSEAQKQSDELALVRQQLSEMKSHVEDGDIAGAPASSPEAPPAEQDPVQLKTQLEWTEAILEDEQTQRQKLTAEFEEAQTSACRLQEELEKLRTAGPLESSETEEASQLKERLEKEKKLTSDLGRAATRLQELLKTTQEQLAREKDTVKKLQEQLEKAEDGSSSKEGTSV

Sequence of CHCHD3 (human) (Q9NX63 2-227 limits assumed): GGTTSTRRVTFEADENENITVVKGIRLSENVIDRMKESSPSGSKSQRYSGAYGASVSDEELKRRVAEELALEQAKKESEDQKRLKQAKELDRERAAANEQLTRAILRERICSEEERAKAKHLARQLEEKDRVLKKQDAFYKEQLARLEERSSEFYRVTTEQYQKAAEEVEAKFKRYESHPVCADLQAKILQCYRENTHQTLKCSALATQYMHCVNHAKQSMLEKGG
Sequence of AIFM1 (human) (O95831 55-613 limits assumed): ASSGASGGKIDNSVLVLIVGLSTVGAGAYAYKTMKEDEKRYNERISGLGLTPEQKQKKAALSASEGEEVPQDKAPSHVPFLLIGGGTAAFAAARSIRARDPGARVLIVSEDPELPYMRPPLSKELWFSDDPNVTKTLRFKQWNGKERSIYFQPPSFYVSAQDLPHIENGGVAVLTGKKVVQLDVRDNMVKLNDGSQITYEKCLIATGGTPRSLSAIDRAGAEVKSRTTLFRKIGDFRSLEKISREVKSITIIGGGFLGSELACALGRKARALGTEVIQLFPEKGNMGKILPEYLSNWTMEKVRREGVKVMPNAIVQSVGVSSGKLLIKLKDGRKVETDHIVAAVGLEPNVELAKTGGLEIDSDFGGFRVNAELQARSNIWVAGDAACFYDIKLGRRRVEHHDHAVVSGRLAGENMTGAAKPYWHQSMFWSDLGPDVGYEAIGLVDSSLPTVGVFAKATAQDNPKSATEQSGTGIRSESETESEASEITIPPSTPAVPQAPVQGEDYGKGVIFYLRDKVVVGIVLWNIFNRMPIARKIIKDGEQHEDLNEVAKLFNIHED
Sequence of IL13RA2 (human) (Q14627 27-380 limits assumed): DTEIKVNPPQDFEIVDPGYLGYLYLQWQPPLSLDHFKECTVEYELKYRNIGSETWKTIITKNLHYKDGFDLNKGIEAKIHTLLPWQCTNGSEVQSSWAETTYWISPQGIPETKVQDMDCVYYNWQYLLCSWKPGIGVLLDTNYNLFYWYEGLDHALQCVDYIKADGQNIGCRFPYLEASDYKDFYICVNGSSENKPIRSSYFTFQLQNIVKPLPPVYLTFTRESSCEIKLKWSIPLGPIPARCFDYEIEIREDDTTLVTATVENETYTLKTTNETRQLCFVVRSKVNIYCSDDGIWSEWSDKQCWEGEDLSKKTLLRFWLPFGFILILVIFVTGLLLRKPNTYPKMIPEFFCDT
Sequence of EIF3A (human) (Q14152 2-1382 limits assumed): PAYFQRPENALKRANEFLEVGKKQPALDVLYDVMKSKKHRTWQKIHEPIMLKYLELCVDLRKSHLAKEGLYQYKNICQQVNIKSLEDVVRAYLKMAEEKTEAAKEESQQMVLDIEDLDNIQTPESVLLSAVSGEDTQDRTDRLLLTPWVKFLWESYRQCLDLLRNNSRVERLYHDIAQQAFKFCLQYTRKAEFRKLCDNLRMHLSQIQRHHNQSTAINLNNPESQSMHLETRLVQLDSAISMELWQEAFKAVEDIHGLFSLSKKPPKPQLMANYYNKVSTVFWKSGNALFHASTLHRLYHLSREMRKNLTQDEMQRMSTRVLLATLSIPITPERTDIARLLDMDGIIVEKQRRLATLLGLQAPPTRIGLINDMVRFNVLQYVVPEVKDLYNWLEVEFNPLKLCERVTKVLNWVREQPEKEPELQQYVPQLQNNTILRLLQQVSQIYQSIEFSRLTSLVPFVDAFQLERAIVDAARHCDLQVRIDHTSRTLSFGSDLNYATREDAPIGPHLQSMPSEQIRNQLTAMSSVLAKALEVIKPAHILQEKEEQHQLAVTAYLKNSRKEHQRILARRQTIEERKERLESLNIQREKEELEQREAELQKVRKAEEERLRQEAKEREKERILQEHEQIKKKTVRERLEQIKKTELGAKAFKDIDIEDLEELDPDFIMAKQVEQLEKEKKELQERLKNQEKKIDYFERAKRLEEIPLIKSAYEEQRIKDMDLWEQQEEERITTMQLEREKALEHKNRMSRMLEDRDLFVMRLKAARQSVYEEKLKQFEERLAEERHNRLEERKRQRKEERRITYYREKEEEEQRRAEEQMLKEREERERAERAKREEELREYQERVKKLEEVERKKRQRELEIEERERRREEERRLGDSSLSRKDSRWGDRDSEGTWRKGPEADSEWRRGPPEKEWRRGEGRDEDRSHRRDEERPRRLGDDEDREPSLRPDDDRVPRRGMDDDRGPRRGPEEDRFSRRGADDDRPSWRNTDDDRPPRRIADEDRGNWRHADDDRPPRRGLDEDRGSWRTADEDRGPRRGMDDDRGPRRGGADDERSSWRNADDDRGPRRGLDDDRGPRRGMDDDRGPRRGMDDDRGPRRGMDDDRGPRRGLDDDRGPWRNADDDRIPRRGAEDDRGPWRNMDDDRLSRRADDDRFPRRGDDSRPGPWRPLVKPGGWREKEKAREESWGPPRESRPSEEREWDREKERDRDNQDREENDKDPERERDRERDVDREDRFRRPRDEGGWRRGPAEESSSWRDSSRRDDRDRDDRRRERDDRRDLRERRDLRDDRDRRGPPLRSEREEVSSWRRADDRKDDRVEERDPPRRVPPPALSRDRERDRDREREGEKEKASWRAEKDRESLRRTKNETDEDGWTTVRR
Sequence of PSMB6 (human) (P28072 35-239 limits assumed): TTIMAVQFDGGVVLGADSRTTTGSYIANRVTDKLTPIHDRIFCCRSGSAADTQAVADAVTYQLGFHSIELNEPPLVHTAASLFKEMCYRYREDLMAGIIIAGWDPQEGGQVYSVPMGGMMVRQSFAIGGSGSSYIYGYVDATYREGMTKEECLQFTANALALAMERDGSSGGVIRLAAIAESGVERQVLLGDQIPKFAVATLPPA
Sequence of CALML5 (human) (Q9NZT1 2-146 limits assumed): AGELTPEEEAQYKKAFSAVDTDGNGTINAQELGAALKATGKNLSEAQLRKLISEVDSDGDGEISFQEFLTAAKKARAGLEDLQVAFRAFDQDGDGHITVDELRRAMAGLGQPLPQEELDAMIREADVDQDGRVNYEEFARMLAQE
Sequence of GSN (human) (P06396 28-782 limits assumed): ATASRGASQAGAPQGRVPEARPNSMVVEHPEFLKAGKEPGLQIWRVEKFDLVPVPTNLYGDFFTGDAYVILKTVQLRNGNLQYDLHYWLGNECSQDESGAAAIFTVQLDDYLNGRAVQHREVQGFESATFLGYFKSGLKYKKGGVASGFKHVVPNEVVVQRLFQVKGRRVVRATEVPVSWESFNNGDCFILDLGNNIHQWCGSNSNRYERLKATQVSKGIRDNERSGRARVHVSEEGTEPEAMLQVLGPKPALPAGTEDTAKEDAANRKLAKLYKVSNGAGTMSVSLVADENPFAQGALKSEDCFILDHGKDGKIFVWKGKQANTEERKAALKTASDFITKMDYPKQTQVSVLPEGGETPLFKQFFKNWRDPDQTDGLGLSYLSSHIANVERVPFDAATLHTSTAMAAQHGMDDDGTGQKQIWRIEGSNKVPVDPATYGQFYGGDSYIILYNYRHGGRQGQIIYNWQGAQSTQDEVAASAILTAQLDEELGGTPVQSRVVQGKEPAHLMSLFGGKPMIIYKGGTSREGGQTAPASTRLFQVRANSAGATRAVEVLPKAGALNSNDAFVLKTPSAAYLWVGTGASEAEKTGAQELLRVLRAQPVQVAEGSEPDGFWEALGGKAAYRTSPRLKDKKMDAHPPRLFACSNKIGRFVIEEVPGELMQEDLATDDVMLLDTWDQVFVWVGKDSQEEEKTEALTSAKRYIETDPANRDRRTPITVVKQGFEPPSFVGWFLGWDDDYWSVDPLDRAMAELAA

**Q.** How did the co-IP mass spectrometry count (CALML5 (human)) turn out when “IgG control (Millipore Sigma 12-371) (antibody)” was run?
**A.** 0

**Q.** And the co-IP mass spectrometry count (CCT3 (human))?
**A.** 0

**Q.** What about the co-IP mass spectrometry count (CHCHD3 (human)) of the same substance?
**A.** 10

**Q.** What about the co-IP mass spectrometry count (DHX9 (human)) of the same substance?
**A.** 0

**Q.** And the co-IP mass spectrometry count (EIF3A (human))?
**A.** 3

**Q.** What about the co-IP mass spectrometry count (EMILIN1 (human)) of the same substance?
**A.** 0

**Q.** What about the co-IP mass spectrometry count (FLG (human)) of the same substance?
**A.** 20

**Q.** And the co-IP mass spectrometry count (GBF1 (human))?
**A.** 0

**Q.** And the co-IP mass spectrometry count (GEMIN4 (human))?
**A.** 0

**Q.** And the co-IP mass spectrometry count (GSN (human))?
**A.** 0

**Q.** What about the co-IP mass spectrometry count (HNRNPM (human)) of the same substance?
**A.** 5

**Q.** What about the co-IP mass spectrometry count (IL13RA2 (human)) of the same substance?
**A.** 0

**Q.** What about the co-IP mass spectrometry count (KCTD5 (human)) of the same substance?
**A.** 0

**Q.** What about the co-IP mass spectrometry count (LCN1 (human)) of the same substance?
**A.** 9

**Q.** What about the co-IP mass spectrometry count (MAP4 (human)) of the same substance?
**A.** 0

**Q.** What about the co-IP mass spectrometry count (PPFIBP1 (human)) of the same substance?
**A.** 0

**Q.** And the co-IP mass spectrometry count (RACK1 (human))?
**A.** 0

**Q.** And the co-IP mass spectrometry count (RPL23 (human))?
**A.** 5

**Q.** What about the co-IP mass spectrometry count (RPL28 (human)) of the same substance?
**A.** 3

**Q.** And the co-IP mass spectrometry count (RPL38 (human))?
**A.** 5

**Q.** What about the co-IP mass spectrometry count (RPL8 (human)) of the same substance?
**A.** 3

**Q.** And the co-IP mass spectrometry count (RPS14 (human))?
**A.** 9

**Q.** And the co-IP mass spectrometry count (RPS26 (human))?
**A.** 4

**Q.** What about the co-IP mass spectrometry count (SYNCRIP (human)) of the same substance?
**A.** 6

**Q.** What about the co-IP mass spectrometry count (SYNM (human)) of the same substance?
**A.** 5

**Q.** What about the co-IP mass spectrometry count (SYNPO (human)) of the same substance?
**A.** 4

**Q.** And the co-IP mass spectrometry count (TBL2 (human))?
**A.** 0

**Q.** What about the co-IP mass spectrometry count (TELO2 (human)) of the same substance?
**A.** 0

**Q.** And the co-IP mass spectrometry count (TPM3 (human))?
**A.** 5

**Q.** How did the co-IP mass spectrometry count (AIFM1 (human)) turn out when “N-terminal FLAG tagged B3GNT2 (from UniProt Q9NY97 1-397) (enzyme)” was run?
**A.** 5

**Q.** What about the co-IP mass spectrometry count (EEF2 (human)) of the same substance?
**A.** 3

**Q.** And the co-IP mass spectrometry count (HSP90AB1 (human))?
**A.** 10

**Q.** And the co-IP mass spectrometry count (LDHA (human))?
**A.** 5

**Q.** What about the co-IP mass spectrometry count (PSMB4 (human)) of the same substance?
**A.** 2

**Q.** What about the co-IP mass spectrometry count (PSMB6 (human)) of the same substance?
**A.** 5

**Q.** What about the co-IP mass spectrometry count (PXN (human)) of the same substance?
**A.** 2

**Q.** And the co-IP mass spectrometry count (RPL15 (human))?
**A.** 6

**Q.** And the co-IP mass spectrometry count (RRBP1 (human))?
**A.** 2
